{"source": "the nanobody polyreactivity screen of Harvey et al. (2022)", "data": [{"test": "yeast display, Sf9 membrane polyspecificity reagent, FACS + sequencing; frameworks hold sequencing errors", "procedure,_shortened": "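Nanobodies from a synthetic yeast display library (Saccharomyces cerevisiae BJ5465), induced 36–48 hours with galactose, were stained 1 hour at 4 °C with 10% biotinylated, detergent-solubilized Sf9 membrane reagent, enriched on streptavidin microbeads, then FACS-sorted. Anti-HA (expression) and streptavidin (reagent binding) fluorescence set low and high (top ~1%) gates. Polyreactivity labels come from the gate of origin. Genes were colony-PCR amplified, MiSeq 2 × 250 sequenced and filtered by CDR length.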", "values": [{"sequence": "QVQLVESGGGLVQAGCSLRLSCAASGRIITRYPMGWYRQAPGKERELVAAISYGGGGTYYADSVKGRFTISRDNAKNTVYLQMNSLKPDDTAVYYCATDDPLSQINEQGMDYWGQGTQVTVSS", "polyreactivity (PSR sort gate)": "low polyreactivity"}, {"sequence": "QVQLVESGGGLVQAGCSLRLSCAASGRNFRYYAMGLYRQAPGKERELVAAIDTGDTYYADSVKGRFTISRDNAKYTGYLQMNSLKPEDTAVYYSAAEGSTSLDDYWGQGTQVTVSS", "polyreactivity (PSR sort gate)": "high polyreactivity"}, {"sequence": "QVQLVESGGGLVQAGCSLRLSCAASGRTFGRNAMGWNRQAPGKERELVAAITSGGSTSYADSVKGRFTISRDNAKNTVYLQMNSLKPEDTAVYYCAADVRPYYTRRVWIQFDYWGQGTQVTVSS", "polyreactivity (PSR sort gate)": "high polyreactivity"}, {"sequence": "QVQLVESGGGLVQAGCSLRLSCAASGRTFTLNAMGWYRQAPGKERELVADITYSDGDTYYADSVKGRFTISRDNAKNTVYLQMNSLIPEDTAGYYCAAGGYTDPGYEYWGQGTQVTVSS", "polyreactivity (PSR sort gate)": "low polyreactivity"}, {"sequence": "QVQLVESGGGLVQAGCSLRLSCAASGRTFYHYGMGWYRQAPGKERELVAAINFSGGSTNYADSVKGRFTISRDNAKNTVYLQMNSLKTEDTAVYNCNKEGRPDRDYWGQGTQVTVSS", "polyreactivity (PSR sort gate)": "low polyreactivity"}, {"sequence": "QVQLVESGGGLVQAGCSLRLSCAASGSIFAYYTMGWYRQAAGKERELVATISSGDITNYADSVKGRFTISRDNAKNSVYLQMNSLKPEDTAVYFCAAAELTSYYRTFIHKDYDFWGQGTQVSVSS", "polyreactivity (PSR sort gate)": "low polyreactivity"}, {"sequence": "QVQLVESGGGLVQAGCSLRLSCAASGSIFDVNAMGWYRQAPGKERELVAAISQRGNRTYYADSVKGRFTISRDNAKNTVYLQMNSLKPEDTAVYYCNRGGWRQYDSWGQGTQVTVSS", "polyreactivity (PSR sort gate)": "high polyreactivity"}, {"sequence": "QVQLVESGGGLVQAGCSLRLSCAASGSNFYRNSMRWYRQAPGKERELVAGITTRGGSTYYADSVKGRFTISRDNAKNTVYLQMNSLKPEDTEVYYCNARSYTGSYFKYYYWGQGTQVTVSS", "polyreactivity (PSR sort gate)": "high polyreactivity"}, {"sequence": "QVQLVESGGGLVQAGCSLRLSCAASGSTFRKYAMGWYSQAPGKQREFVAAITSSGGSTYYSDSVKGRFTISRDKAKNTVYLLMNSLIPEDTAVYYCASRGVYVSTAYNYWGQGTQVTESS", "polyreactivity (PSR sort gate)": "high polyreactivity"}, {"sequence": "QVQLVESGGGLVQAGCSLRLSCAASGSTFRRYAMGWYRQAPGKERELVAAISGGGTSTYYADSVEGRFTISRDNAKNTVDLQMNSLKPEDTAVYYCNAKTYYARYDYWGQGTQVSVSS", "polyreactivity (PSR sort gate)": "high polyreactivity"}, {"sequence": "QVQLVESGGGLVQAGCSLRLSCAASGTFGLYAMGWYRQAPGKERELVAAIRARGGSTYYADSVKGRFTISRDNAKNTVYLQMNSLKPEDTAVYYCAAEFWDVSLARKQWYDYWGQGTQVSVSS", "polyreactivity (PSR sort gate)": "high polyreactivity"}, {"sequence": "QVQLVESGGGLVQAGCSLRLSCAASRYIFYFYAMGWYRQAPGKERELVAAINSGGTTNYADSVKGRFTISRDNAKNTVYLQMNSLKAEDTAVYYCAARLLIRYYYWGQGTQVTVSS", "polyreactivity (PSR sort gate)": "high polyreactivity"}, {"sequence": "QVQLVESGGGLVQAGCSLRLSCAATGCSFKYNTMGWYRQAPGKERELVAAITSGGGSTYYADSVKGRFTISRDNAKNTVYLPMNRLKPEDTAVYYCAAYRRNTYWGQGTQVTVSA", "polyreactivity (PSR sort gate)": "high polyreactivity"}, {"sequence": "QVQLVESGGGLVQAGCSRRFSCAASGFTFYKNAMGWYRQAPGKERELVAAITSSGGTTYYADSVKGRFTISRDNAKNTVYLQMNSLNPEDTAVYYCAARASRPRFGYWGQGTQVTVSS", "polyreactivity (PSR sort gate)": "high polyreactivity"}, {"sequence": "QVQLVESGGGLVQAGDSLRLSCAASGSIFVYYAMGWYRQAPGKERELVASISKTGGRTYYADSVKGRFTISRDNAKNTVFLQMNSLKPEDTAVYYCAARYTIRYKRYDYWGQGSQVTVSS", "polyreactivity (PSR sort gate)": "high polyreactivity"}, {"sequence": "QVQLVESGGGLVQAGFSLRLSCAASGFTFKYYAMGWYRQAPGKERELVAAISSGGSTYYADSVKGRFTISRDNAKNTVYLQMNSLKPEDTAVYYCNRRFAPFWGRYGYWGQGTKVTVSS", "polyreactivity (PSR sort gate)": "high polyreactivity"}, {"sequence": "QVQLVESGGGLVQAGGCLRLSCAASGFTLRYNAMGWSRQAPGKERELVAAITTGGRTNYADSVKGRFTISRDNAKKTVYLQMNSLKPEDTAVYNCNKVFRSFDYWGQGTQVTVSS", "polyreactivity (PSR sort gate)": "high polyreactivity"}, {"sequence": "QVQLVESGGGLVQAGGCLRLSCAASGSIFGYNAMGWYRHAPGKERELVAAISWRGGSTYYADSVKGRFTISRDNAKNSVYLQMNSLKPEDTAVYYCNTLYPYRHDYAGDYWGQGTQVTVSA", "polyreactivity (PSR sort gate)": "high polyreactivity"}, {"sequence": "QVQLVESGGGLVQAGGCLRLSCAASGSTFSPNAMGWYRQAPGKERELVAAISVSCGTTYYADSVKGRFTISRDNAKNTVYLQMNSLKPEDTAVYYCAAKPYPTDDYWGQGTQVTVSS", "polyreactivity (PSR sort gate)": "low polyreactivity"}, {"sequence": "QVQLVESGGGLVQAGGGLRLSCAASGNTFRYYAMGWYIQAPGKERELVATITSGGRTYYADSVKGRFTISRDNAKNTVYLQMNSLKPEDTAVYYCNADYFQDRLDYWGQGTQVTVSS", "polyreactivity (PSR sort gate)": "low polyreactivity"}, {"sequence": "QVQLVESGGGLVQAGGGLRLSCAASGSIFLINAMGWYRQAPGKERELVAAITSGSSTNYADSVKGRFTISRDNAKNTVYLQMNSLKPEDTAVYYCAASTPYSYRYDYWGQGTQVTVSS", "polyreactivity (PSR sort gate)": "low polyreactivity"}, {"sequence": "QVQLVESGGGLVQAGGGLRLSSAASGTFKRNAVGWYRQAPGKERELVATITRTGSTTYADSVKGRFTISRDNAMNTVYLQMNSLKPEDTAVYYCAAGYPPEDPEDYWGQGTQVTVSS", "polyreactivity (PSR sort gate)": "low polyreactivity"}, {"sequence": "QVQLVESGGGLVQAGGILPLSCAASGSIFVSNAMGWSRQAPGKERELVAAISSGSTYYADSVKGRFTISRDNAKNTVYLQMNSLKPEDTAVFYCIARSLLYEFDYWGQGTQVTVSS", "polyreactivity (PSR sort gate)": "low polyreactivity"}, {"sequence": "QVQLVESGGGLVQAGGILRFSCAASGRISVVNAMAWFRQAPGKARELVAAIRRASTNYADSVKGRFTISRDNAKNTVYLQMNSLKPEDTAVYYCAARVYGINIFEYWGQGTQVTLSS", "polyreactivity (PSR sort gate)": "high polyreactivity"}, {"sequence": "QVQLVESGGGLVQAGGILRISCAASGRTFIMNAMGWYRQAPGKERELVAAINWSGGTSTYYADSVKGRFTISRDNAKNTVYFQMNSLKPEDTAVYYCAADYYSYVYYDYWGQGTLVTVSS", "polyreactivity (PSR sort gate)": "low polyreactivity"}, {"sequence": "QVQLVESGGGLVQAGGILRLSCAASGFIFAPNAMGWYRQPPGKERELVAAISASGGSTYYADSVKGRFTISRDNAKNTVYLQMNSLKPEDTAVYYCAADRTFSSFPEYNYWGQGTQVTVSS", "polyreactivity (PSR sort gate)": "low polyreactivity"}, {"sequence": "QVQLVESGGGLVQAGGILRLSCAASGFIFDSYAMGWYRQAPGKERELVAAINWNGGRTYYADSVKGRFTISRDNAKNTVYLQMNRLKPEDTAVYYCAKDTDNWDVGGYVYDYDYWGQGTQVTVSS", "polyreactivity (PSR sort gate)": "high polyreactivity"}, {"sequence": "QVQLVESGGGLVQAGGILRLSCAASGFIFRKYAMGWYRQAPGKERELVAAINKSGGSTYYADSVKGRFTISRDNAKNTVYLQMNSLKPEDSAVYYCATVRTYRPPVRRGYWGQGTLVTVSS", "polyreactivity (PSR sort gate)": "high polyreactivity"}, {"sequence": "QVQLVESGGGLVQAGGILRLSCAASGFTFHRYAMGWYRQAPGKERELVARITRGGSTKYADSVKGRFTISRDNAKNTVYLQMNSLKPEDTAVYYCAADYGGFLGYDYWGQGNQVTVSS", "polyreactivity (PSR sort gate)": "high polyreactivity"}, {"sequence": "QVQLVESGGGLVQAGGILRLSCAASGFTFPWYTMGWYRQAPGKERELVAAISKSGGSTYYADSVKGRFTISRDNAKNTVFLQMNSLKPEDTAVYYCAARGNLYVGGDERFWGQGTQVTVSS", "polyreactivity (PSR sort gate)": "high polyreactivity"}, {"sequence": "QVQLVESGGGLVQAGGILRLSCAASGFTLLPYAMGWYTQAPGKERELVAAISRRGVSTYYADSVKGRFTLSRDNAKNTVYLPMNSLNPQDTAVNYCAADSYSRATVQYEYWGQCTQVTVSS", "polyreactivity (PSR sort gate)": "high polyreactivity"}, {"sequence": "QVQLVESGGGLVQAGGILRLSCAASGGIFNRYSKGWYRQAPGKERELVAGITRSGGSTSYADSVKGRFTISRDNAKNTVYLQMNSLKPEDTAVYFCKKVAYYASSSSYRFGAYGYWGQGSQVTVSS", "polyreactivity (PSR sort gate)": "high polyreactivity"}]}]}
